The text below walks through data of patent US20050277167A1 (published 2005).

The test concerns the target T1, chicken prolyl 3-hydroxylase 1 (chicken P3H1) (chicken, UniProt Q6JHU8 15-725).
T1 construct: Native protein from chick embryos (gelatin sepharose, then 1C10 antibody column); also called chick homologue of leprecan; 90 kDa protein
T1 sequence: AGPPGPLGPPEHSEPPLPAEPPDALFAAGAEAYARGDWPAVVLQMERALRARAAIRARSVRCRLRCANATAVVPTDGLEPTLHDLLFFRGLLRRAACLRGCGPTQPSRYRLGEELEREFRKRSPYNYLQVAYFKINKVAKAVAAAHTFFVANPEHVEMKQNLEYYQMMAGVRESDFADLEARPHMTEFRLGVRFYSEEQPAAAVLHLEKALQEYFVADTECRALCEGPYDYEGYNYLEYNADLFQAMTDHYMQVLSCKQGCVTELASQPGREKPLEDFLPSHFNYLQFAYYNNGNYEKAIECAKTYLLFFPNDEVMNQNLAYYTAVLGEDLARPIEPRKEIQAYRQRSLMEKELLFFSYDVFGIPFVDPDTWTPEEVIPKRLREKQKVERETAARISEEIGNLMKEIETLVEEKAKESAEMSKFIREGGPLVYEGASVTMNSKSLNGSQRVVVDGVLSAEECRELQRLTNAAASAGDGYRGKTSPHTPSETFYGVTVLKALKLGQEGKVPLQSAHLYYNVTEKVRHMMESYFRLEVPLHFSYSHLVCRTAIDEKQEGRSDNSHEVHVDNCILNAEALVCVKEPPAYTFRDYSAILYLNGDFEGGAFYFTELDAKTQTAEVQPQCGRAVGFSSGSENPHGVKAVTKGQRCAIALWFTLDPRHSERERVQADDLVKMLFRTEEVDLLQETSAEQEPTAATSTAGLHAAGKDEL
The test is described as follows: co-retention on 1C10 (anti-P3H1) column, elution at pH 6 and 0.5 M NaCl, SDS-PAGE and sequencing. As for the experimental part: The antibody was produced and selected by standard methods and specificity of the antibody was determined using immunoblotting and ELISA techniques. The antibody recognizes both nonreduced and reduced (at much lower affinity) P3H1 and was used to create an affinity column for the purpose of protein purification. Briefly, a 2 ml column was created using approximately 10 mg of the 1C10 antibody and AminoLink® plus coupling gel (Pierce) following the manufacturer's instructions. Pooled and dialyzed peak fractions from the gelatin sepharose elution were then loaded onto the antibody column and the flow through was collected and concentrated for further purification of prolyl 4-hydroxylase and PDI by sieve chromatography on superose 12 resin (Pharmacia). The 1C10 antibody column was washed with 5 volumes of PBS (procedure described in Current Protocols in Protein Science Online), and then washed with 5 volumes of wash B buffer containing 50 mM sodium phosphate, pH 6.0, 0.5 M NaCl, and 0.1% Triton X-100 to elute associated proteins. […] Sequences of proteins eluted with the wash B buffer were determined by Edman degradation in a protein sequencer (Applied Biosystems Procise Sequencer). […]

B1: cyclophilin B (CYPB) (enzyme)
chain: not shown
notes: Native protein from chick embryos, 21 kDa on SDS-PAGE; also called 21 kDa protein
Regarding B1, the binding result is “binds”.
